# Square brackets hold non-standard residues; d marks the D form. Peptide text beside a SMILES is read from it. * marks the point of attachment. pNA = O=[N+]([O-])c1ccc(N*)cc1; Ms = CS(=O)(=O)*
# B1: FXa bovine (Bos taurus) (protein)
# chain: IVGGRDCAEGECPWQALLVNEENEGFCGGTILNEFYVLTAAHCLHQAKRFTVRVGDRNTEQEEGNEMAHEVEMTVKHSRFVKETYDFDIAVLRLKTPIRFRRNVAPACLPEKDWAEATLMTQKTGIVSGFGRTHEKGRLSSTLKMLEVPYVDRSTCKLSSSFTITPNMFCAGYDTQPEDACQGDSGGPHVTRFKDTYFVTGIVSWGEGCARKGKFGVYTKVSNFLKWIDKIMKARAGAAGSRGHSEAPATWTVPPPLPL
# Tests used:
# FXa bovine = FXa bovine (Bos taurus, UniProt P00743); assay: Determination of the kinetic constants for FXa bovine (chromogenic/fluorogenic substrate hydrolysis)
# Description: (§1) Enzymes and substrates are mixed in a buffer solution at -37° C. The absorbance change per minute is measured at 405 nm in a spectrophotometer (pNA-substrate) or in a spectrofluorometer at excitation wavelength 380 nm and emission wavelength 440 nm (AMC-substrate).
# (§2) FXa bovine (KabiVitrum) with a constant enzyme concentration
# E0 =4 nmol/l (pNA-substrate)
# E0 =2 nmol/l (AMC-substrate)
# (§3) and the substrate in concentrations between 0.01-0.4 mmol/l (Si) are mixed in a trisbuffer solution 0.05 mol/l, pH=8.3, I=0.25 (NaCl) at 37° C. Absorbance change per minute is measured at 405 nm in a spectrophotometer for pNA-substrate and in a spectrofluorometer at emission wavelength 440 nm for AMC-substrate, respectively.
# Thrombin bovine = target: T1, Thrombin bovine (Bos taurus, UniProt P00735); assay: Determination of thrombin sensitivity; format: biochemical; settings: for Km: substrate 0.1-0.4 mmol/l
# T1 construct: Thrombin bovine (KabiVitrum) with a constant concentration E0 =1.3 nmol/l; purchased KabiVitrum
# FXa human = target: T2, FXa human (Homo sapiens, UniProt P00742); assay: Determination of kinetic constants for FXa human (plasma activated with RVV+CaCl2); format: biochemical; settings: for Km: substrate 0.1-0.7 mmol/l, trisbuffer pH 7.0, I=0.25, polybrene, 37° C.
# T2 construct: from tissue; host or cells: human plasma
# Description: The kinetic data for the substrates are determined by measuring the initial velocity of hydrolysis (Vi) at different substrate concentrations (Si) and at constant enzyme concentrations (Eo). The binding constant (Km) and the maximum velocity (Vmax) are obtained in known manner from Lineweaver-Burk-plot, then the Kcat is calculated (Hemker H. C. loc. cit.)
# The substrates in concentrations between 0.1-0.7 mmol/l (Si) are mixed with FXa human plasma and treated according to the method as described by Aurell; L., et al. (Perspectives in Hemostatis, Ed. Fareed J. et al, New York, Pergamon Press 1981, p. 382-388).
# 10 μl test plasma, control or standard and 200 μl trisbuffer solution (0.05 mol/l tris, pH 7.0, I=0.25 (NaCl)), polybrene (0.1 g/l) are mixed and incubated at 37° C. for 2-4 minutes. 200 μl substrate (37° C.) in concentrations between 0.1-0.7 mmol/l dissolved in trisbuffer solution prepared according to the above are added. The mixture is well stirred and within 30 seconds 200 μl RVV+CaCl2 (20°-25° C.) are added and the mixture is stirred. The absorbance change is measured at once in a spectrophotometer at 405 nm and 37° C.
# [1] = substrate: CCOC(=O)N[C@H](CCCNC(=N)N)C(=O)NCC(=O)N[C@@H](CCCNC(=N)N)C(=O)Nc1ccc([N+](=O)[O-])cc1; assay: purified protein, by the assay type; settings: other: FXa bovine E0=4 nmol/l (pNA-substrate) or 2 nmol/l (AMC-substrate), substrate 0.01-0.4 mmol/l, trisbuffer 0.05 mol/l, pH 8.3, I=0.25, 37° C.
# Description: as §1, §2
# E0 =4 nmol/l (pNA-substrate)
# E0 =2 nmol/l (AMC-substrate)
# as §3
# [2] = substrate: N=C(N)NCCC[C@H](NC(=O)CNC(=O)[C@@H](CCCNC(=N)N)NS(=O)(=O)c1ccccc1)C(=O)Nc1ccc([N+](=O)[O-])cc1; assay: purified protein, by the assay type; settings: other: FXa bovine E0=4 nmol/l (pNA-substrate) or 2 nmol/l (AMC-substrate), substrate 0.01-0.4 mmol/l, trisbuffer 0.05 mol/l, pH 8.3, I=0.25, 37° C.
# Description: as §1, §2
# E0 =4 nmol/l (pNA-substrate)
# E0 =2 nmol/l (AMC-substrate)
# as §3
# [3] = substrate: Cc1cc(=O)oc2cc(NC(=O)[C@H](CCCNC(=N)N)NC(=O)CNC(=O)[C@@H](CCCNC(=N)N)NC(=O)OCc3ccccc3)ccc12; assay: purified protein, by the assay type; settings: other: FXa bovine E0=4 nmol/l (pNA-substrate) or 2 nmol/l (AMC-substrate), substrate 0.01-0.4 mmol/l, trisbuffer 0.05 mol/l, pH 8.3, I=0.25, 37° C.
# Description: as §1, §2
# E0 =4 nmol/l (pNA-substrate)
# E0 =2 nmol/l (AMC-substrate)
# as §3
# [4] = substrate: COc1ccc(COC(=O)N[C@H](CCCNC(=N)N)C(=O)NCC(=O)N[C@@H](CCCNC(=N)N)C(=O)Nc2ccc([N+](=O)[O-])cc2)cc1; assay: purified protein, by the assay type; settings: other: FXa bovine E0=4 nmol/l (pNA-substrate) or 2 nmol/l (AMC-substrate), substrate 0.01-0.4 mmol/l, trisbuffer 0.05 mol/l, pH 8.3, I=0.25, 37° C.
# Description: as §1, §2
# E0 =4 nmol/l (pNA-substrate)
# E0 =2 nmol/l (AMC-substrate)
# as §3
# [5] = substrate: CCS(=O)(=O)N[C@H](CCCNC(=N)N)C(=O)NCC(=O)N[C@@H](CCCNC(=N)N)C(=O)Nc1ccc([N+](=O)[O-])cc1; assay: purified protein, by the assay type; settings: other: FXa bovine E0=4 nmol/l (pNA-substrate) or 2 nmol/l (AMC-substrate), substrate 0.01-0.4 mmol/l, trisbuffer 0.05 mol/l, pH 8.3, I=0.25, 37° C.
# Description: as §1, §2
# E0 =4 nmol/l (pNA-substrate)
# E0 =2 nmol/l (AMC-substrate)
# as §3
# [6] = substrate: N=C(N)NCCC[C@H](NC(=O)CNC(=O)[C@@H](CCCNC(=N)N)NS(=O)(=O)c1ccc([N+](=O)[O-])cc1)C(=O)Nc1ccc([N+](=O)[O-])cc1; assay: purified protein, by the assay type; settings: other: FXa bovine E0=4 nmol/l (pNA-substrate) or 2 nmol/l (AMC-substrate), substrate 0.01-0.4 mmol/l, trisbuffer 0.05 mol/l, pH 8.3, I=0.25, 37° C.
# Description: as §1, §2
# E0 =4 nmol/l (pNA-substrate)
# E0 =2 nmol/l (AMC-substrate)
# as §3
# [7] = substrate: N=C(N)NCCC[C@H](NC(=O)CNC(=O)[C@@H](CCCNC(=N)N)NS(=O)(=O)Cc1ccccc1)C(=O)Nc1ccc([N+](=O)[O-])cc1; assay: purified protein, by the assay type; settings: other: FXa bovine E0=4 nmol/l (pNA-substrate) or 2 nmol/l (AMC-substrate), substrate 0.01-0.4 mmol/l, trisbuffer 0.05 mol/l, pH 8.3, I=0.25, 37° C.
# Description: as §1, §2
# E0 =4 nmol/l (pNA-substrate)
# E0 =2 nmol/l (AMC-substrate)
# as §3
# [8] = substrate: CN(CC(=O)N[C@@H](CCCNC(=N)N)C(=O)Nc1ccc([N+](=O)[O-])cc1)C(=O)[C@@H](CCCNC(=N)N)NC(=O)OCc1ccccc1; assay: purified protein, by the assay type; settings: other: FXa bovine E0=4 nmol/l (pNA-substrate) or 2 nmol/l (AMC-substrate), substrate 0.01-0.4 mmol/l, trisbuffer 0.05 mol/l, pH 8.3, I=0.25, 37° C.
# Description: as §1, §2
# E0 =4 nmol/l (pNA-substrate)
# E0 =2 nmol/l (AMC-substrate)
# as §3
# [9] = substrate: N=C(N)NCCC[C@H](NC(=O)CNC(=O)[C@@H](CCCNC(=N)N)NS(=O)(=O)c1ccc2ccccc2c1)C(=O)Nc1ccc([N+](=O)[O-])cc1; assay: purified protein, by the assay type; settings: other: FXa bovine E0=4 nmol/l (pNA-substrate) or 2 nmol/l (AMC-substrate), substrate 0.01-0.4 mmol/l, trisbuffer 0.05 mol/l, pH 8.3, I=0.25, 37° C.
# Description: as §1, §2
# E0 =4 nmol/l (pNA-substrate)
# E0 =2 nmol/l (AMC-substrate)
# as §3
# [10] = substrate: CC(C)C[C@@H](NS(C)(=O)=O)C(=O)NCC(=O)N[C@@H](CCCNC(=N)N)C(=O)Nc1ccc([N+](=O)[O-])cc1; assay: purified protein, by the assay type; settings: other: FXa bovine E0=4 nmol/l (pNA-substrate) or 2 nmol/l (AMC-substrate), substrate 0.01-0.4 mmol/l, trisbuffer 0.05 mol/l, pH 8.3, I=0.25, 37° C.
# Description: as §1, §2
# E0 =4 nmol/l (pNA-substrate)
# E0 =2 nmol/l (AMC-substrate)
# as §3
# [11] = substrate: N=C(N)NCCC[C@H](NC(=O)CNC(=O)[C@@H](CCCNC(=N)N)NC(=O)OCc1ccccc1)C(=O)Nc1ccc([N+](=O)[O-])cc1; assay: purified protein, by the assay type; settings: other: FXa bovine E0=4 nmol/l (pNA-substrate) or 2 nmol/l (AMC-substrate), substrate 0.01-0.4 mmol/l, trisbuffer 0.05 mol/l, pH 8.3, I=0.25, 37° C.
# Description: as §1, §2
# E0 =4 nmol/l (pNA-substrate)
# E0 =2 nmol/l (AMC-substrate)
# as §3
# [12] = substrate: CS(=O)(=O)N[C@H](CCCNC(=N)N)C(=O)NCC(=O)N[C@@H](CCCNC(=N)N)C(=O)Nc1ccc([N+](=O)[O-])cc1; assay: purified protein, by the assay type; settings: other: FXa bovine E0=4 nmol/l (pNA-substrate) or 2 nmol/l (AMC-substrate), substrate 0.01-0.4 mmol/l, trisbuffer 0.05 mol/l, pH 8.3, I=0.25, 37° C.
# Description: as §1, §2
# E0 =4 nmol/l (pNA-substrate)
# E0 =2 nmol/l (AMC-substrate)
# as §3
# [13] = substrate: COc1ccc(S(=O)(=O)N[C@H](CCCNC(=N)N)C(=O)NCC(=O)N[C@@H](CCCNC(=N)N)C(=O)Nc2ccc([N+](=O)[O-])cc2)cc1; assay: purified protein, by the assay type; settings: other: FXa bovine E0=4 nmol/l (pNA-substrate) or 2 nmol/l (AMC-substrate), substrate 0.01-0.4 mmol/l, trisbuffer 0.05 mol/l, pH 8.3, I=0.25, 37° C.
# Description: as §1, §2
# E0 =4 nmol/l (pNA-substrate)
# E0 =2 nmol/l (AMC-substrate)
# as §3
# [14] = substrate: N=C(N)NCCC[C@H](NC(=O)CNC(=O)[C@@H](CCCNC(=N)N)NS(=O)(=O)c1ccc(Cl)cc1)C(=O)Nc1ccc([N+](=O)[O-])cc1; assay: purified protein, by the assay type; settings: other: FXa bovine E0=4 nmol/l (pNA-substrate) or 2 nmol/l (AMC-substrate), substrate 0.01-0.4 mmol/l, trisbuffer 0.05 mol/l, pH 8.3, I=0.25, 37° C.
# Description: as §1, §2
# E0 =4 nmol/l (pNA-substrate)
# E0 =2 nmol/l (AMC-substrate)
# as §3
# [15] = substrate: N=C(N)NCCC[C@H](NC(=O)CNC(=O)[C@@H](CCCNC(=N)N)NC(=O)OCc1ccc([N+](=O)[O-])cc1)C(=O)Nc1ccc([N+](=O)[O-])cc1; assay: purified protein, by the assay type; settings: other: FXa bovine E0=4 nmol/l (pNA-substrate) or 2 nmol/l (AMC-substrate), substrate 0.01-0.4 mmol/l, trisbuffer 0.05 mol/l, pH 8.3, I=0.25, 37° C.
# Description: as §1, §2
# E0 =4 nmol/l (pNA-substrate)
# E0 =2 nmol/l (AMC-substrate)
# as §3
# [16] = substrate: CC(C)(C)OC(=O)N[C@H](CCCNC(=N)N)C(=O)NCC(=O)N[C@@H](CCCNC(=N)N)C(=O)Nc1ccc([N+](=O)[O-])cc1; assay: purified protein, by the assay type; settings: other: FXa bovine E0=4 nmol/l (pNA-substrate) or 2 nmol/l (AMC-substrate), substrate 0.01-0.4 mmol/l, trisbuffer 0.05 mol/l, pH 8.3, I=0.25, 37° C.
# Description: as §1, §2
# E0 =4 nmol/l (pNA-substrate)
# E0 =2 nmol/l (AMC-substrate)
# as §3
# [17] = substrate: Cc1ccc(S(=O)(=O)N[C@H](CCCNC(=N)N)C(=O)NCC(=O)N[C@@H](CCCNC(=N)N)C(=O)Nc2ccc([N+](=O)[O-])cc2)cc1; assay: purified protein, by the assay type; settings: other: FXa bovine E0=4 nmol/l (pNA-substrate) or 2 nmol/l (AMC-substrate), substrate 0.01-0.4 mmol/l, trisbuffer 0.05 mol/l, pH 8.3, I=0.25, 37° C.
# Description: as §1, §2
# E0 =4 nmol/l (pNA-substrate)
# E0 =2 nmol/l (AMC-substrate)
# as §3
# [18] = Thrombin bovine E0=1.3 nmol/l, trisbuffer pH 8.3, I=0.25, 37° C.
# [19] = trisbuffer pH 7.0, I=0.25, 37° C.
# T2 sequence (P00742 235-488 limits assumed): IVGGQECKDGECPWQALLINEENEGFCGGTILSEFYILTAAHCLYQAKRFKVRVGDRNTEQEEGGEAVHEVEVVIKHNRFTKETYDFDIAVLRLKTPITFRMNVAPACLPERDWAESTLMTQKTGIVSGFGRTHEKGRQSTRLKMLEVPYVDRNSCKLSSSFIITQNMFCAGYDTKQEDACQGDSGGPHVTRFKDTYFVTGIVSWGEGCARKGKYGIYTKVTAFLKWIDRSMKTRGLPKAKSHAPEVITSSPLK
# T2 sequence (P00742 41-179 partner limits assumed): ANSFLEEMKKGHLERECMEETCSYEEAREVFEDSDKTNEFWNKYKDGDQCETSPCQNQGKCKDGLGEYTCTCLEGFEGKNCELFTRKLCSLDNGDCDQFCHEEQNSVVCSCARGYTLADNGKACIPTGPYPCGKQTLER
# Chain of FXa bovine (P00743 41-180 partner limits assumed, one chain of several): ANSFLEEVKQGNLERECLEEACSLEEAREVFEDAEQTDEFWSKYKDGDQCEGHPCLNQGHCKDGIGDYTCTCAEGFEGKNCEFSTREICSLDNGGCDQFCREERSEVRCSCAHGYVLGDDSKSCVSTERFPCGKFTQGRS
molecule,measurement,setting,value
Bz--Ile--Glu--(γ--OR)--Gly--ARg--pNA.HCl [Example S-2222],Km,"FXa bovine; FXa bovine E0=4 nmol/l (pNA-substrate) or 2 nmol/l (AMC-substrate), substrate 0.01-0.4 mmol/l, trisbuffer 0.05 mol/l, pH 8.3, I=0.25, 37° C.",510 µM
same,Kcat,"FXa bovine; FXa bovine E0=4 nmol/l (pNA-substrate) or 2 nmol/l (AMC-substrate), trisbuffer pH 8.3, I=0.25, 37° C.",180 sek^-1
same,Kcat /Km (selectivity constant),"FXa bovine; FXa bovine, trisbuffer pH 8.3, I=0.25, 37° C.",0.35 l/μmol · sek
same,ratio for the selectivity constant FXa bovine through thrombin,Thrombin bovine; Kcat/Km FXa bovine divided by Kcat/Km thrombin bovine,19.4
same,Km,Thrombin bovine; [18],710 µM
same,Kcat,Thrombin bovine; [18],13 sek^-1
same,Kcat /Km,"Thrombin bovine; Thrombin bovine, trisbuffer pH 8.3, I=0.25, 37° C.",0.018 1/μmol · sek
same,Km,FXa human,1970 µM
same,Vmax,FXa human; [19],46 µmol/L/min
same,Vmax /Km,FXa human; [19],0.023 min⁻¹
"N=C(N)NCCC[C@H](NC(=O)CNC(=O)[C@@H](CCCNC(=N)N)NS(=O)(=O)Cc1ccccc1)C(=O)Nc1ccc([N+](=O)[O-])cc1 [Example 16, N^α --Bzls--D--Arg--Gly--Arg--pNA.2HCl]",Km,Thrombin bovine; [18],160 µM
same,Km,FXa human,50 µM
"CC(C)C[C@@H](NS(C)(=O)=O)C(=O)NCC(=O)N[C@@H](CCCNC(=N)N)C(=O)Nc1ccc([N+](=O)[O-])cc1 [CBS 31.39, CH3 SO2 --D--Leu--Gly--Arg--pNA.AcOH] (Ms-[dL]-Gly-Arg-pNA)",Km,Thrombin bovine; [18],230 µM
same,Km,FXa human,1060 µM
B1,Km,[1],160 µM
same,kcat,[1],225 sek^-1
same,kcat/Km,[1],1.41 l/μmol · sek
same,Km,[2],260 µM
same,kcat,[2],280 sek^-1
same,kcat/Km,[2],1.07 l/μmol · sek
same,Km,[3],190 µM
same,kcat,[3],170 sek^-1
same,kcat/Km,[3],0.89 l/μmol · sek
same,Km,[4],150 µM
same,Km,[5],190 µM
same,Km,[6],450 µM
same,kcat,[6],245 sek^-1
same,kcat/Km,[6],0.55 l/μmol · sek
same,Km,[7],40 µM
same,Km,[8],160 µM
same,kcat,[8],220 sek^-1
same,kcat/Km,[8],1.37 l/μmol · sek
same,Km,[9],120 µM
same,kcat,[9],140 sek^-1
same,kcat/Km,[9],1.14 l/μmol · sek
same,Km,[10],290 µM
same,Km,[11],110 µM
same,Km,[12],170 µM
same,kcat,[12],200 sek^-1
same,kcat/Km,[12],1.17 l/μmol · sek
same,Km,[13],200 µM
same,kcat,[13],210 sek^-1
same,kcat/Km,[13],1.05 l/μmol · sek
same,Km,[14],270 µM
same,kcat,[14],260 sek^-1
same,kcat/Km,[14],0.96 l/μmol · sek
same,Km,[15],210 µM
same,kcat,[15],350 sek^-1
same,kcat/Km,[15],1.66 l/μmol · sek
same,Km,[16],220 µM
same,kcat,[16],180 sek^-1
same,kcat/Km,[16],0.82 l/μmol · sek
same,Km,[17],220 µM
same,kcat,[17],230 sek^-1
same,kcat/Km,[17],1.04 l/μmol · sek

# Reference: US4797472A, “New peptide derivatives” (KabiVitrum AB, priority 1986, dated 1989)
